EP1175513B1, “MinK-RELATED GENES, FORMATION OF POTASSIUM [sequence] AND ASSOCIATION WITH CARDIAC [sequence]” (The University of Utah Research Foundation, priority 1999, dated 2000)

Columns and labels:
[1] = biological target: HERG (human, UniProt Q12809 1-1159); assay: cell-based or functional assay
[2] = biological target: T1, channels formed with Q9E-hMiRP1 (Homo sapiens, UniProt Q12809); assay: Clarithromycin blockade of channels expressed in CHO cells; conditions: effect of clarithromycin (Fig. 9C)
T1 sequence (Q12809 whole entry): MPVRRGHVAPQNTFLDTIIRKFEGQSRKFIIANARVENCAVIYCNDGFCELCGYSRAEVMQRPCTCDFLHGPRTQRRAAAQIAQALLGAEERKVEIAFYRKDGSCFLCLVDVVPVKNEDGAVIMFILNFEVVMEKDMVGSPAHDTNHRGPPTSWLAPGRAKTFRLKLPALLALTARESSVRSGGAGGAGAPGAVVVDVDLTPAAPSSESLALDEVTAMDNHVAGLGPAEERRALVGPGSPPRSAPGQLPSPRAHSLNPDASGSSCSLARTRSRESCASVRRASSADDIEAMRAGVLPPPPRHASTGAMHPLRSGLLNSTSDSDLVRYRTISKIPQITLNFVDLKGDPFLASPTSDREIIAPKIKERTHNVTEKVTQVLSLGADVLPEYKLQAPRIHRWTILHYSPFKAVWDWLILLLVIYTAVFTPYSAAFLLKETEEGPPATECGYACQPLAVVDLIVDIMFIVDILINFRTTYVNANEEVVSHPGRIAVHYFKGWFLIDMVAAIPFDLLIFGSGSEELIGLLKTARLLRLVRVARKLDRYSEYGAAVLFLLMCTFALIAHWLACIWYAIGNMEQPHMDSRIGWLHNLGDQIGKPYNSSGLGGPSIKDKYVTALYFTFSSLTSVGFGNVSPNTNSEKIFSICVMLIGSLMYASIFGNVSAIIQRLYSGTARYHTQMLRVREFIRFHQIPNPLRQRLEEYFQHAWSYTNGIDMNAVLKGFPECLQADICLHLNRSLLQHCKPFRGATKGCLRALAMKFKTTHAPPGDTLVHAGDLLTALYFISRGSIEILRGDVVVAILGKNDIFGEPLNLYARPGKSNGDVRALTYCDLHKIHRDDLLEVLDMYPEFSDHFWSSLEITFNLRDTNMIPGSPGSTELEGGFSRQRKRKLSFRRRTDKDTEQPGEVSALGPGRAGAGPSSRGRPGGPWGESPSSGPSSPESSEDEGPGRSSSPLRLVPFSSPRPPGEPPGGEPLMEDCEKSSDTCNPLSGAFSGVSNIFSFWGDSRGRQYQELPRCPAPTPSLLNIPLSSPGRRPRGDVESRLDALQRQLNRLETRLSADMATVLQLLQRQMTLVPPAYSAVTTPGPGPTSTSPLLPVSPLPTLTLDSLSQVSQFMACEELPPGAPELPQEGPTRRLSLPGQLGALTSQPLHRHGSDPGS
T1 sequence (Q9Y6J6 with tags, fused parts or gaps Q9E partner): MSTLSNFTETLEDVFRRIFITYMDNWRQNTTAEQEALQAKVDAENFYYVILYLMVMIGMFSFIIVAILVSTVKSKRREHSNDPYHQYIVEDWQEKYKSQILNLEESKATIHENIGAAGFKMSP

[3] = biological target: channels formed with wild type hMiRP1 (Homo sapiens, UniProt Q12809); assay: as above; conditions: effect of clarithromycin (Fig. 9C)
channels formed with wild type hMiRP1, sequence (Q12809 whole entry): as the sequence (Q12809 whole entry) above
channels formed with wild type hMiRP1, sequence (Q9Y6J6 whole entry partner): as the sequence (Q9Y6J6 with tags, fused parts or gaps Q9E partner) above, with E9Q counted along it

[4] = biological target: T1, channels formed with Q9E-hMiRP1; assay: in vitro; conditions: cho cells
[5] = human, in vivo, po
Experimental: To test the hypothesis that MiRP1 mutants cause cardiac arrhythmia, we screened a panel of 20 patients with drug-induced arrhythmia and 230 patients with inherited or sporadic arrhythmias and no mutations in their KVLQT1, HERG, SCN5A or KCNE1 genes.
Q9E-hMiRP1. […] The patient is a person with a history of high blood pressure, non-insulin dependent diabetes and stroke. […] The patient was admitted to the hospital with pneumonia and treated with 7 doses of intravenous erythromycin, 500 mg every 6 hours and then switched to oral clarithromycin, 500 mg every 12 hours.

| Molecule | activation V1/2 mV [1] | deactivation ratio If/(Is + If) [1] | deactivation τf s [1] | deactivation τs, s [1] | activation V1/2 in 1 mM Ca^2+, 1 mM KCl solution [1] | other results |
| --- | --- | --- | --- | --- | --- | --- |
| M54T-hMiRP1 (from UniProt Q9Y6J6 1-123) | -21 mV | 0.81 | 37 ms | 266 |  | faster deactivation against wild type hMiRP1 channels [1]: 3 fold |
| T8A-hMiRP1 (from UniProt Q9Y6J6 1-123) | -29 mV | 0.83 | 100 ms | 590 |  |  |
| wild type human MiRP1 (from UniProt Q9Y6J6 1-123) | -21 mV | 0.82 | 80 ms | 483 | -20 mV | faster deactivation against HERG alone (τf at -120 mV) [1]: 3 fold; unitary conductance (oocytes) [1]: 8 pS |
| Q9E-hMiRP1 (from UniProt Q9Y6J6 1-123) | -12 mV | 0.8 | 100 ms | 750 | -12 mV |  |
| CC[C@H]1OC(=O)[C@H](C)[C@@H](O[C@H]2C[C@@](C)(OC)[C@@H](O)[C@H](C)O2)[C@H](C)[C@@H](O[C@@H]2O[C@H](C)C[C@H](N(C)C)[C@H]2O)[C@](C)(OC)C[C@@H](C)C(=O)[C@H](C)[C@@H](O)[C@]1(C)O [clarithromycin] |  |  |  |  |  | slope factor [2]: no change; slope factor [3]: no change; selectivity ratio [4]: 3; arrhythmia developed [5]: TdP and VF |
| rMiRP1 (other) MTTLANLTQTLEDAFKKVFITYMDSWRRNTTAEQQALQARVDAENFYYVILYLMVMIGMFAFIVVAILVSTVKSKRREHSQDPYHQYIVEDWQQKYRSQILHLEDSKATIHENLGATGFTVSP |  |  |  |  |  | acceleration of single-channel deactivation [1]: 2.3 fold; increase in deactivation rate against HERG alone [1]: 7 fold; increase in deactivation rate, plasma-like solution [1]: ~2 fold |
